Data published in IntAct's records for PubMed 20360680.
Residue numbers refer to the chain shown, from its start.

B1: Ras-related protein Rab-6A (Mus musculus), P35279 (parent)
chain: MSAGGDFGNPLRKFKLVFLGEQSVGKTSLITRFMYDSFDNTYQATIGIDFLSKTMYLEDRTVRLQLWDTAGQERFRSLIPSYIRDSTVAVVVYDITNVNSFQQTTKWIDDVRTERGSDVIIMLVGNKTDLADKRQVSIEEGERKAKELNVMFIETSAKAGYNVKQLFRRVAAALPGMESTQDRSREDMIDIKLEKPQEQPVNEGGCSC
partner: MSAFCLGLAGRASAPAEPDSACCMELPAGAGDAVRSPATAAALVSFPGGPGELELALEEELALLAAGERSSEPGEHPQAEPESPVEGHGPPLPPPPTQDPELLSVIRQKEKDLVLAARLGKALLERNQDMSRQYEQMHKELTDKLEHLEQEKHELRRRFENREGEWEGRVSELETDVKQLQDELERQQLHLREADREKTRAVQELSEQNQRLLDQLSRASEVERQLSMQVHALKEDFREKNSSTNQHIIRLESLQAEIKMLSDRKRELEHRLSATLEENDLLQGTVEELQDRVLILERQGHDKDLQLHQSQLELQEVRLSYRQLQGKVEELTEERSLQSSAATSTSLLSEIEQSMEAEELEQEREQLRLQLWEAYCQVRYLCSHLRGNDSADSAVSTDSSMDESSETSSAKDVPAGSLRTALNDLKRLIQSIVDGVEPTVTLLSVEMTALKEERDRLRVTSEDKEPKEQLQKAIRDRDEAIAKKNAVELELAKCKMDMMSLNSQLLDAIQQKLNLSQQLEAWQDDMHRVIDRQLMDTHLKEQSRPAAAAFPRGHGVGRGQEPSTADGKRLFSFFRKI
B2: Protein bicaudal D homolog 2 (Mus musculus), Q921C5 (parent)
chain: MSAPSEEEEYARLVMEAQPEWLRAEVKRLSHELAETTREKIQAAEYGLAVLEEKHQLKLQFEELEVDYEAIRSEMEQLKEAFGQAHTNHKKVAADGESREESLIQESASKEQYYVRKVLELQTELKQLRNVLTNTQSENERLTSVAQELKEINQNVEIQRGRLRDDIKEYKFREARLLQDYSELEEENISLQKQVSVLRQNQVEFEGLKHEIKRLEEETEYLNSQLEDAIRLKEISERQLEEALETLKTEREQKNNLRKELSHYMSINDSFYTSHLQVSLDGLKFSDDTVTAEPNNDAEALVNGFEHSGLVKSSLDNKTSTPRKDGLAPPSPSLVSDLLSELHISEIQKLKQQLVQMEREKVGLLATLQDTQKQLEQARGTLSEQHEKVNRLTENLSALRRLQAGKERQTSLDNEKDRDSHEDGDYYEVDINGPEILACKYHVAVAEAGELREQLKALRSTHEAREAQHAEEKGRYEAEGQALTEKISLLEKASHQDRELLAHLEKELKKVSDVAGETQGSLNVAQDELVTFSEELANLYHHVCMCNNETPNRVMLDYYREGQGKAGRTSPEGRGRRSPVLLPKGLLATEVGRADGGTGDNSPSPSSSLPSPLSDPRREPMNIYNLIAIIRDQIKHLQAAVDRTTELSRQRIASQELGPAVDKDKEALMEEILKLKSLLSTKREQITTLRTVLKANKQTAEVALANLKSKYENEKAMVTETMMKLRNELKALKEDAATFSSLRAMFATRCDEYITQLDEMQRQLAAAEDEKKTLNSLLRMAIQQKLALTQRLELLELDHEQTRRGRSKAASKAKPASPSL
B3: Ras-related protein Rab-6A (Homo sapiens), P20340 (parent)
chain: B1 chain with A3T, N202S
partner: B1 partner
B4: Ras-related protein Rab-6A (Mus musculus), P35279 (parent)
chain: B1 chain
B5: BICD family-like cargo adapter 1 (Mus musculus), A0JNT9 (parent)
chain: B1 partner

Variants of: B1
Details: with bicl1_mouse Bicdl1, A0JNT9

| Variant | effect of a mutation on the interaction |
| --- | --- |
| Q72R | increasing interaction |

Variants of: B2
Details: with rab6a_mouse Rab6a

| Variant | effect of a mutation on the interaction |
| --- | --- |
| K785M | disrupting interaction |

Variants of: B3
Details: with bicl1_mouse Bicdl1, A0JNT9

| Variant | effect of a mutation on the interaction |
| --- | --- |
| T27N | disrupting interaction |

Variants of: B4
Details: with bicd2_mouse Bicd2, Q921C5

| Variant | effect of a mutation on the interaction |
| --- | --- |
| T27N | disrupting interaction |

Variants of: B5
Details: with rab6a_mouse Rab6a

| Variant | effect of a mutation on the interaction |
| --- | --- |
| K512M | disrupting interaction |

Variants of: B5
Details: with rab6b_mouse Rab6b

| Variant | effect of a mutation on the interaction |
| --- | --- |
| K512M | disrupting interaction |
